Series [1] concerns DYT1 patient plasma derived EVs. The series is described as follows: Plasma-derived EV proteomics (ExoQuick ULTRA, DIA LC/MS/MS), DYT1 vs Healthy Controls. To be noted: Hs. Plasma EVs (DYT1/WT); significance of genotype difference. Also noted: species or system human. The procedure:
Data was obtained for extracellular vesicles using previously acquired samples. The ExoQuick® ULTRA EV Isolation System was used to fractionate and enrich EVs from plasma. Isolated plasma EV samples were then submitted to proteomic analysis by the Duke Proteomics and Metabolomics Core Facility (DPMCF). At the DPMCF, quantitative (LC/MS/MS) was performed on 500 ng of each sample, using an EvoSep One UPLC system coupled to a Thermo Orbitrap Astral high-resolution accurate mass tandem mass spectrometer (Thermo). Briefly, the sample was eluted directly from an Evotip which was subjected to a low organic wash and then subjected to an analytical separation using a 1.7 μm EvoSep 150 um ID×15 cm endurance (EveoSep) column running an SPD30 gradient from approximately 5 to 30% acetonitrile with 0.1% formic acid with a column temperature of 50 C. Data collection on the Orbitrap Astral mass spectrometer was performed in a data-independent acquisition (DIA) mode of acquisition with a r=240,000 (@m/z 200) full MS scan from m/z 380-980 with a target AGC value of 4e5 ions. Fixed DIA, windows of 4 m/z from m/z 380 to 980 DIA MS/MS scans were acquired in the Astral with a target AGC value of 5e4 and a max fill time of 6 ms. HCD collision energy setting of 27% was used for all MS2 scans.

Series [2] concerns WT MEF EVs. Kind of series: Quantitative LC-MS/MS proteomics of EVs from ISRIB-treated WT MEF cultures. The settings on record: EV protein abundance; for WT + ISRIB/WT Cohen's d: ISRIB-treated WT vs WT; for ISRIB and DYT Parallel Direction: WT + ISRIB vs WT, direction compared with DYT/WT. Also noted: key to ISRIB and DYT Parallel Direction / ISRIB and DYT Parallel Direction, Ctdsp1 / ISRIB and DYT Parallel Direction, Pcdh19 / ISRIB and DYT Parallel Direction, Tspan7 / ISRIB and DYT Parallel Direction, Myo1e / ISRIB and DYT Parallel Direction, Plpp3 / ISRIB and DYT Parallel Direction, Sh3bp4 / ISRIB and DYT Parallel Direction, Dnajc7 / ISRIB and DYT Parallel Direction, Drg1 / ISRIB and DYT Parallel Direction, Maea: YES = protein abundance effect similar to DYT/WT. The class given is cell-based, mouse.

The subject of series [3] is DYT-TOR1A MEF EVs. Kind of series: Quantitative LC-MS/MS proteomics of EVs from drug-treated DYT-TOR1A MEF cultures (ritonavir, salubrinal). The class given is cell-based, mouse. Also noted: key to RTV Corrective Direction / RTV Corrective Direction, Grwd1 / RTV Corrective Direction, Srrm2 / RTV Corrective Direction, Rbm17 / RTV Corrective Direction, Dcaf8 / RTV Corrective Direction, Edil3 / RTV Corrective Direction, Timp3 / RTV Corrective Direction, Heatr3 / RTV Corrective Direction, Brd4 / RTV Corrective Direction, P3h4 / RTV Corrective Direction, Pacsin3 / RTV Corrective Direction, Naa50 / RTV Corrective Direction, Lpar6 / RTV Corrective Direction, Ndrg1 / RTV Corrective Direction, Kntc1 / RTV Corrective Direction, Cdk11b / RTV Corrective Direction, Sumo1 / RTV Corrective Direction, Lsm4 / RTV Corrective Direction, Hmga2 / RTV Corrective Direction, Cstf1 / RTV Corrective Direction, Tes / RTV Corrective Direction, Sbno1 / RTV Corrective Direction, Unc119b / RTV Corrective Direction, Cfdp1 / RTV Corrective Direction, Sec61b: YES = protein abundance effect opposite to DYT/WT. The settings on record: EV protein abundance; for RTV Corrective Direction: DYT + RTV (ritonavir) vs DYT, direction compared with DYT/WT; for DYT + RTV/DYT Cohen's d: ritonavir (RTV)-treated DYT vs DYT.

B1: ZYX (protein, UniProt Q15942 2-572, looked up)
Zyxin: AAPRPSPAISVSVSAPAFYAPQKKFGPVVAPKPKVNPFRPGDSEPPPAPGAQRAQMGRVGEIPPPPPEDFPLPPPPLAGDGDDAEGALGGAFPPPPPPIEESFPPAPLEEEIFPSPPPPPEEEGGPEAPIPPPPQPREKVSSIDLEIDSLSSLLDDMTKNDPFKARVSSGYVPPPVATPFSSKSSTKPAAGGTAPLPPWKSPSSSQPLPQVPAPAQSQTQFHVQPQPQPKPQVQLHVQSQTQPVSLANTQPRGPPASSPAPAPKFSPVTPKFTPVASKFSPGAPGGSGSQPNQKLGHPEALSAGTGSPQPPSFTYAQQREKPRVQEKQHPVPPPAQNQNQVRSPGAPGPLTLKEVEELEQLTQQLMQDMEHPQRQNVAVNELCGRCHQPLARAQPAVRALGQLFHIACFTCHQCAQQLQGQQFYSLEGAPYCEGCYTDTLEKCNTCGEPITDRMLRATGKAYHPHCFTCVVCARPLEGTSFIVDQANRPHCVPDYHKQYAPRCSVCSEPIMPEPGRDETVRVVALDKNFHMKCYKCEDCGKPLSIEADDNGCFPLDGHVLCRKCHTARAQT
With B1, the “-LogP” value in series [1] came out at 2.225.

B2: AP1B1 (protein, UniProt Q10567 1-949, looked up)
AP-1 complex subunit beta-1: MTDSKYFTTTKKGEIFELKAELNSDKKEKKKEAVKKVIASMTVGKDVSALFPDVVNCMQTDNLELKKLVYLYLMNYAKSQPDMAIMAVNTFVKDCEDPNPLIRALAVRTMGCIRVDKITEYLCEPLRKCLKDEDPYVRKTAAVCVAKLHDINAQLVEDQGFLDTLKDLISDSNPMVVANAVAALSEIAESHPSSNLLDLNPQSINKLLTALNECTEWGQIFILDCLANYMPKDDREAQSICERVTPRLSHANSAVVLSAVKVLMKFMEMLSKDLDYYGTLLKKLAPPLVTLLSAEPELQYVALRNINLIVQKRPEILKHEMKVFFVKYNDPIYVKLEKLDIMIRLASQANIAQVLAELKEYATEVDVDFVRKAVRAIGRCAIKVEQSAERCVSTLLDLIQTKVNYVVQEAIVVIKDIFRKYPNKYESVIATLCENLDSLDEPEARAAMIWIVGEYAERIDNADELLESFLEGFHDESTQVQLQLLTAIVKLFLKKPTETQELVQQVLSLATQDSDNPDLRDRGYIYWRLLSTDPVAAKEVVLAEKPLISEETDLIEPTLLDELICYIGTLASVYHKPPSAFVEGGRGVVHKSLPPRTASSESAESPETAPTGAPPGEQPDVIPAQGDLLGDLLNLDLGPPVSGPPLATSSVQMGAVDLLGGGLDSLMGDEPEGIGGTNFVAPPTAAVPANLGAPIGSGLSDLFDLTSGVGTLSGSYVAPKAVWLPAMKAKGLEISGTFTRQVGSISMDLQLTNKALQVMTDFAIQFNRNSFGLAPAAPLQVHAPLSPNQTVEISLPLSTVGSVMKMEPLNNLQVAVKNNIDVFYFSTLYPLHILFVEDGKMDRQMFLATWKDIPNENEAQFQIRDCPLNAEAASSKLQSSNIFTVAKRNVEGQDMLYQSLKLTNGIWVLAELRIQPGNPSCTDLELSLKCRAPEVSQHVYQAYETILKN
For the molecule B2, the “-LogP” value in series [1] is recorded as 2.413.

B3: Mvd (protein, UniProt P53602 2-400, looked up)
Diphosphomevalonate …: ASEKPLAAVTCTAPVNIAVIKYWGKRDEELVLPINSSLSVTLHQDQLKTTTTAVISKDFTEDRIWLNGREEDVGQPRLQACLREIRCLARKRRNSRDGDPLPSSLSCKVHVASVNNFPTAAGLASSAAGYACLAYTLARVYGVESDLSEVARRGSGSACRSLYGGFVEWQMGEQADGKDSIARQVAPESHWPELRVLILVVSAEKKLTGSTVGMRASVETSPLLRFRAESVVPARMAEMARCIRERDFPSFAQLTMKDSNQFHATCLDTFPPISYLNAISWRIIHLVHRFNAHHGDTKVAYTFDAGPNAVIFTLDDTVAEFVAAVWHGFPPGSNGDTFLKGLQVRPAPLSAELQAALAMEPTPGGVKYIIVTQVGPGPQILDDPCAHLLGPDGLPKPAA
For B3, in series [2], the “WT + ISRIB/WT Cohen's d” value is −0.34; the “ISRIB and DYT Parallel Direction” value is reported as “YES”. Moreover, in series [3], the “RTV Corrective Direction” value is reported as “YES” and the “DYT + RTV/DYT Cohen's d” value is 4.38.

B4: Cd276 (protein, UniProt Q8VE98 29-316, looked up)
CD276 antigen: VEVQVSEDPVVALVDTDATLRCSFSPEPGFSLAQLNLIWQLTDTKQLVHSFTEGRDQGSAYSNRTALFPDLLVQGNASLRLQRVRVTDEGSYTCFVSIQDFDSAAVSLQVAAPYSKPSMTLEPNKDLRPGNMVTITCSSYQGYPEAEVFWKDGQGVPLTGNVTTSQMANERGLFDVHSVLRVVLGANGTYSCLVRNPVLQQDAHGSVTITGQPLTFPPEALWVTVGLSVCLVVLLVALAFVCWRKIKQSCEEENAGAEDQDGDGEGSKTALRPLKPSENKEDDGQEIA
As to B4, in series [2], the “WT + ISRIB/WT Cohen's d” value was −2.07; the “ISRIB and DYT Parallel Direction” value is given as “YES”. Besides, in series [3], the “RTV Corrective Direction” value is “YES” and the “DYT + RTV/DYT Cohen's d” value came to 1.75.

B5: Ap3d1 (protein, UniProt O54774 2-1199, looked up)
AP-3 complex subunit delta-1: ALKMVKGSIDRMFDKNLQDLVRGIRNHKEDEAKYISQCIDEIKQELKQDNIAVKANAVCKLTYLQMLGYDISWAAFNIIEVMSASKFTFKRVGYLAASQCFHEGTDVIMLTTNQIRKDLSSPSQYDTGVALTGLSCFVTPDLARDLANDIMTLMSHTKPYIRKKAVLIMYKVFLKYPESLRPAFPRLKEKLEDPDPGVQSAAVNVICELARRNPKNYLSLAPLFFKLMTSSTNNWVLIKIIKLFGALTPLEPRLGKKLIEPLTNLIHSTSAMSLLYECVNTVIAVLISLSSGMPNHSASIQLCVQKLRILIEDSDQNLKYLGLLAMSKILKTHPKSVQSHKDLILQCLDDKDESIRLRALDLLYGMVSKKNLMEIVKKLMTHVDKAEGTTYRDELLTKIIDICSQSNYQHITNFEWYISILVELTRLEGTRHGHLIAAQMLDVAIRVKAIRKFAVSQMSSLLDSAHLVASSTQRNGICEVLYAAAWICGEFSEHLQGPQQTLEAMLRPKVTTLPGHIQAVYVQNVVKLYASILQQKEQAADTEAAQEVTQLLVERLPQFVQSADLEVQERASCILQLVKHVQKLQAKGVPVAEEVSALFAGELNPVAPKAQKKVPVPEGLDLDAWINEPPSDSESEDEKPKAIFHEEEPRHTRRRQPEEDEEELARRREARKQEQANNPFYIKSSPSPQKRYQDAPGVEHIPVVQIDLSVPLKVPGMPMSDQYVKLEEQRRHRQRLEKDKKRKKKEKGKRRHSSLPTESDEDIAPAQRVDIITEEMPENALPSDEDDKDPNDPYRALDIDLDKPLADSEKLPVQKHRNAEAVKSPEKEGVLGVEKKSKKPKKKEKKTKEREREKKDKKGEDLDFWLSTTPPPAAAPIPAPSTEELAASTITSPKDECEVLKGEEEDHVDHDQERKSSRHKKKKHRKEKEKEERPRDKKKAKKKQVAPLENGAAAEEEEEPIPPMSSYCLLAESPYIKVTYDIQASLQKDSQVTVSIILENQSSSFLKNMELNVLDSLNTKMTRPEGSSVHDGVPVPFQLPPGVSNEAQFVFTIQSIVMAQKLKGTLSFIAKDDEGATHEKLDFRLHFSCSSYLITTPCYSDAFAKLLESGDLSMNSIKVDGISMSFQNLLAKICFYHHFSVVERVDSCASMYSRSIQGHHVCLLVKKGESSVSVDGKCSDATLLSSLLEEMKTTLAQC
As for B5, in series [2], the “WT + ISRIB/WT Cohen's d” value was −0.19; the “ISRIB and DYT Parallel Direction” value is reported as “YES”. Further, in series [3], the “RTV Corrective Direction” value is listed as “YES” and the “DYT + RTV/DYT Cohen's d” value amounted to 3.27.

B6: Dhx15 (protein, UniProt O35286 1-795, looked up)
ATP-dependent RNA helicase …: MSKRHRLDLGEDYPSGKKRAGTDGKDRERDRDREDRSKDRDRERDRGDREREREKEKEKELRASTNAMLISAGLPPLKASHSAHSTHSAHSTHSTHSAHSTHTGHTGHTSLPQCINPFTNLPHTPRYYDILKKRLQLPVWEYKDRFTDILVRHQSFVLVGETGSGKTTQIPQWCVEYMRSLPGPKRGVACTQPRRVAAMSVAQRVADEMDVMLGQEVGYSIRFEDCSSAKTILKYMTDGMLLREAMNDPLLERYGVIILDEAHERTLATDILMGVLKEVVRQRSDLKVIVMSATLDAGKFQIYFDNCPLLTIPGRTHPVEIFYTPEPERDYLEAAIRTVIQIHMCEEEEGDLLLFLTGQEEIDEACKRIKREVDDLGPEVGDIKIIPLYSTLPPQQQQRIFEPPPPKKQNGAIGRKVVVSTNIAETSLTIDGVVFVIDPGFAKQKVYNPRIRVESLLVTAISKASAQQRAGRAGRTRPGKCFRLYTEKAYKTEMQDNTYPEILRSNLGSVVLQLKKLGIDDLVHFDFMDPPAPETLMRALELLNYLAALNDDGDLTELGSMMAEFPLDPQLAKMVIASCDYNCSNEVLSITAMLSVPQCFVRPTEAKKAADEAKMRFAHIDGDHLTLLNVYHAFKQNHESVQWCYDNFINYRSLMSADNVRQQLSRIMDRFNLPRRSTDFTSRDYYINIRKALVTGYFMQVAHLERTGHYLTVKDNQVVQLHPSTVLDHKPEWVLYNEFVLTTKNYIRTCTDIKPEWLVKIAPQYYDMSNFPQCEAKRQLDRIIAKLQSKEYSQY
As for B6, in series [2], the “WT + ISRIB/WT Cohen's d” value is −1.19; the “ISRIB and DYT Parallel Direction” value is given as “YES”. In addition, in series [3], the “RTV Corrective Direction” value is on record as “YES” and the “DYT + RTV/DYT Cohen's d” value is 4.59.
